Laboratory results reported in publication PMC6238616.

Legend:
[1] = target: synaptotagmin binding cytoplasmic RNA interacting protein (SYNCRIP), wild type, LUMIER fusion; experiment: LUMIER; settings: read off a plot
[2] = target: SMN1, wild type, LUMIER fusion (UniProt Q16637); experiment: LUMIER; settings: parent: est. 120000; read off a plot
Chain of SMN1, wild type, LUMIER fusion (UniProt Q16637) (Q16637 whole entry, the tested form may be a part): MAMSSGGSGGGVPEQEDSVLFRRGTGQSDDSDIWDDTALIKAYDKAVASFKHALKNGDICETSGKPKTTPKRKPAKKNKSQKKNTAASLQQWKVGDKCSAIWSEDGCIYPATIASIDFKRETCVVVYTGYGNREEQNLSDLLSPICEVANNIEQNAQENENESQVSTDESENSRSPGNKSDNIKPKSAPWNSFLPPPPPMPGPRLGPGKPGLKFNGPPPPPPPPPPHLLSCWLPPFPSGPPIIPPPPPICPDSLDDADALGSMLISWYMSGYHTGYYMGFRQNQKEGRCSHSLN

Chain of SMN1, wild type, LUMIER fusion (from UniProt Q16637) SMN1 DD MT (Q16637 whole entry, change not shown, the tested form may be a part): as the sequence (Q16637 whole entry, the tested form may be a part) above

Work on “PHF1, wild type, LUMIER fusion (from UniProt O43189) Y47A” yielded a response ([1]; parent: est. 100000) of 32000 RU.

“SMN1, wild type, LUMIER fusion (from UniProt Q16637) SMN1 DD MT” was tested, and the response [2] was 37000 RU and the response ([1]; parent: est. 180000) was 110000 RU.

Substance “SMN1, wild type, LUMIER fusion (from UniProt Q16637) Y127L” has a response ([1]; parent: est. 180000) of 91000 RU.
